T1: SiMYB3 (Setaria italica, UniProt K3YEJ5 1-315)
T1 sequence: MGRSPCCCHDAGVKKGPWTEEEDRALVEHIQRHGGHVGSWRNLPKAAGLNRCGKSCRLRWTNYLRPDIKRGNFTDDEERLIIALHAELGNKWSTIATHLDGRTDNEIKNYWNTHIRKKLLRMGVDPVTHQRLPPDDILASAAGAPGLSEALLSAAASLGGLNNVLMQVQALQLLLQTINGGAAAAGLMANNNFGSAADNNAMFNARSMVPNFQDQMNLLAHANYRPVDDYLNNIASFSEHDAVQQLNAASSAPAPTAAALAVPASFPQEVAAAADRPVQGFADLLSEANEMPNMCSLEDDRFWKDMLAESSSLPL


target: T1, SiMYB3; experiment: EMSA; EMSA 20 uL: 30 ng GST-SiMYB3, 400 fmol biotin probe, 10 mM Tris pH 7.5, 50 mM KCl, 1 mM DTT, 2.5% glycerol, 5 mM MgCl2, 50 ng/uL poly(dI-dC), 0.05% NP-40; temperature not stated; settings: protein: recombinant; label: biotin

Binder	binding result
TAR2 promoter MYB-element probe (dsDNA) DNA 1: TTAAGTACATGAGTTAGGTTCGTAATCCAATA DNA 2: TATTGGATTACGAACCTAACTCATGTACTTAA	binds
TAR2 promoter mutant probe (dsDNA) DNA 1: TTAAGTACATGATTAATTAACGTAATCCAATA DNA 2: TATTGGATTACGTTAATTAATCATGTACTTAA	no binding
OsFIB promoter MYB-motif probe (dsDNA) DNA 1: GCGATAGAATGTGTCGTATCCCGAGCTAGTTTTGTTCGAACATACAGCC DNA 2: GGCTGTATGTTCGAACAAAACTAGCTCGGGATACGACACATTCTATCGC	binds

— paper PMC6888739, “SiMYB3 in Foxtail Millet (Setaria italica) Confers Tolerance to Low-Nitrogen Stress by Regulating Root Growth in Transgenic Plants”
